Patent publication US20260131000A1 (Memorial Sloan Kettering, published 2026)
Where a chain is given by its changes, count along the chain named.

B1: 143G03 (antibody, V domains shown)
VH: QVQLRQSGAELVRPGTSVKMSCKASGYTFTNYYIHWVKQRPGQGLEWIGKIGPGSGSPYYNGMFKDKATLTVDTSSSTAYMQLSSLTSEDSAVYFCARWLLPFDYWGQGTTLTVSS
VL: QIVLSQSPGILSASPGEKVTMTCRASSSVNYMHWYQQKSGSSPKPWIFATSILASGVPPRFSGSGSGTSYSLTISSVEAEDTATYYCQQFSSDPLTFGAGTKLELK
B2: 13F04 (antibody, V domains shown)
VH: QVQLQQPGAELVKPGASVKLSCKASGYIFISYWMHWVKQRPGQGLEWIGEINPRNGRTNYNEKFKSKATLTVDKSSSTAYMQLTSLTSEDSAVYYCARGGDYGGSFDYWGQGTTLTVSS
VL: DIVLTQSPASLAVSLGQRATISCRASESVDSYGNSFMHWYQQKPGQPPKLLIYRASNLESGIPARFSGSGSRTDFTLTVNPVEADDVATYYCQQSNEDPWTFGGGTKLEIK
B3: 14A10 (antibody, V domains shown)
VH: EVQMVESGGGLVQPGGSLRLSCAAPGFIFSSYNMNWVRQAPGKGLEWVSYISSSSSTTYYADSVKGRFTISRDNAKNSLYLQMNSLRDEDTAVYYCASLYSGYDYYYYYGMDVWGQGTTVTVSS
VL: DIVMTQTPLSSPVSLGQPASISCRSSQSLVHSDGNTYLSWLQQRPGQPPRVLIYKISKRFSGVPDRFSGSGAGTDFTLKISRVEAEDVGVYYCMQATQFPFTFGPGTKVDIK
B4: 13G04 (antibody, V domains shown)
VH: QVQLVQSGAEVKKPGASVKVSCKASGYTFIGYYLHWVRQAPGQGLEWMGWINPNSGGTNSAQKFQGRVTMTRDTSISTTYMDLSRLRSDDTAVYYCARGGLERRDAFDIWGQGTLVTVSS
VL: DIQMTQSPSTLSASVGDRVTITCRASQSISNWLAWYQQKPGKAPNLLIYKASSLESGVPSRFSGSGSGTEFTLTISSLQPDDFATYYCQQYDTYRTFGQGTKVEIK
B5: Fab Construct 1 (chimeric 76H12 Fab, parental mouse 76H12 V-regions) (Fab, V domains shown)
VH: QVQLQQPGSDLVRPGTSVKLSCKASGYTFTSYWMHWVKQRPGQGLEWIGNVYPGSGSTKYDEKFKTKATLTVDTSSNTAYMELSSLTSEDSAVYYCTRPGNYEGFAYWGQGTLVTVSA
VL: B2 VL with D1N, N34S, R54L, I62V, V79I, N80D, V87A, S95N
notes: domain: CH1; also called Fab 1; chimeric Fab; not shown: constant region of human kappa light chain
B6: Fab Construct 2 (humanized 76H12 Fab) (Fab, V domains shown)
VH: QVQLVQSGAEVKKPGASVKVSCKASGYTFTSYWMHWVRQAPGQGLEWMGNVYPGSGSTKYAQKFQGRVTMTRDTSTSTVYMELSSLRSEDTAVYYCARPGNYEGFAYWGQGTLVTVSS
VL: NIQLTQSPSSLSASVGDRVTITCRASESVDSYGSSFMHWYQQKPGKPPKLLIYLASNLESGVPSRFSGSGSGTDFTLTISSLQPEDFATYYCQQNNEDPWTFGQGTKLEIK
notes: domain: CH1; also called Fab 2; h76H12_Hv0/h76H12_Lv3; not shown: constant region of human kappa light chain

target: L1CAM endogenously expressed on MCF-7 and MDA-MB-231 cells (UniProt P32004); assay: flow cytometry, MCF-7 cells

EC50 [nM]	Binder
0.35	B1
1.2	B2
5.3	B3
4.8	B4

target: L1CAM endogenously expressed on MCF-7 and MDA-MB-231 cells (UniProt P32004); assay: flow cytometry, MDA-MB-231 cells

EC50 [nM]	Binder
0.9	B1
1.7	B2
8.9	B3
6.7	B4

target: human L1CAM overexpressed on HEK293T cells (human, UniProt P32004 20-1257); assay: flow cytometry on HEK293T cells overexpressing L1CAM (panel HEK293T-L1CAM), GMFI ratio to 2nd only against log[Fab], nM
Excerpt: A total of 11 humanized 76H12 Fab variants (Fabs 2-12) were generated in addition to a chimeric 76H12 Fab (Fab 1) containing the parental murine VH and VL sequences. The chimeric Fab served as the benchmark for comparative assessment of humanized Fab variants. […] All humanized variants bound to the L1CAM overexpressing cells, with most binding comparably to the chimeric 76H12 Fab. […] Here, recombinant L1CAM-Fc fusion protein was immobilized onto anti-Human IgG Fc Capture (AHC) biosensors and binding of Fabs was measured kinetically over a 3-200 nM concentration range. Kinetic data were fitted to a 1:1 binding model to compute association (kₒₙ) and dissociation (koff) rate constants, in addition to equilibrium dissociation constants (KD) as shown in Table 59. […] From these, Fab 3 represents the preferred humanized variant given higher identity to human germline IGHV1-46 and IGKV1-39 sequences resulting from fewer human-to-murine framework back mutations.

Sequence of human L1CAM overexpressed on HEK293T cells (P32004 20-1257): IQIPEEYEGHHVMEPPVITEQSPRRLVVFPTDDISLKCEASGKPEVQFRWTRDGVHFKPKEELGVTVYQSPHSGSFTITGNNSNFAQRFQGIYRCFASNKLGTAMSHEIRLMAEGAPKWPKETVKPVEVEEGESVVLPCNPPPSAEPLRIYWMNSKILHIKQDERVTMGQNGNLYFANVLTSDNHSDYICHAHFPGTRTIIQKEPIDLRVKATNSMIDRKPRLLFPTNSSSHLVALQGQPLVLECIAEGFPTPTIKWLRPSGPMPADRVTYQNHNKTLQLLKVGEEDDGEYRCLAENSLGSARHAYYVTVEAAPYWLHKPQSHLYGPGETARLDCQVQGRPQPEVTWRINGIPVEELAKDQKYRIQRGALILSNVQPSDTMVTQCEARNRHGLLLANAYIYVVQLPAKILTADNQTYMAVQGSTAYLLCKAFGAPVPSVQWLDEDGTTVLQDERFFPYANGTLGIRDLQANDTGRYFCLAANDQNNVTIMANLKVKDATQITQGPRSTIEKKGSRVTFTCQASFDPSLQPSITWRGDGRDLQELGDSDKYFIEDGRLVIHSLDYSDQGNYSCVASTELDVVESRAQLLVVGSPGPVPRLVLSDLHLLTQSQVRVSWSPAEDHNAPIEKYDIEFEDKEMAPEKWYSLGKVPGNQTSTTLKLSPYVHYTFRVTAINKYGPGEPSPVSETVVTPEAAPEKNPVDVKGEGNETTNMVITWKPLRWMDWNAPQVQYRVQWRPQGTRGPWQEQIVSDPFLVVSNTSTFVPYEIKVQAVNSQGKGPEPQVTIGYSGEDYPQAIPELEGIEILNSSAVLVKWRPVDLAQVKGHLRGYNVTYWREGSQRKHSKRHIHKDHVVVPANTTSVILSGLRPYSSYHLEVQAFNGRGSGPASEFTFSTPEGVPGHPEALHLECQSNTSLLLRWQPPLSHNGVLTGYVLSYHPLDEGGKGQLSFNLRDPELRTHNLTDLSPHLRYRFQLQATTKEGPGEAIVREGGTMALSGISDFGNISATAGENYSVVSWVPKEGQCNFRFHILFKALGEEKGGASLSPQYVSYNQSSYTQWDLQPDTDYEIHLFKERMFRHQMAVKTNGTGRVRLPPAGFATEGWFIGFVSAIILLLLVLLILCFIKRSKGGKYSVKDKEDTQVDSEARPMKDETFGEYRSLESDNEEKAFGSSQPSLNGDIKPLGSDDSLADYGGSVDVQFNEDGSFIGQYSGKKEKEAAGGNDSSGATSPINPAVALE

EC50 (read off the curve) [nM]	Binder
~70	B5
~200	B6
